In this test the target is N-terminal EGFP fusion to zebrafish P2X4 crystallized construct (EGFP-ΔP2X4-A) (Danio rerio) (UniProt F8W463). The experiment in a line: SEC.

For “N-terminal EGFP fusion to zebrafish P2X4 crystallized construct (EGFP-ΔP2X4-A) (from UniProt F8W463 1-389) (receptor)”, the stoichiometry N came out at 3.

Values taken from PMC3441139.
